Changes are numbered by the printed parent chain. Numbers in names are those of the source.
B1: P-1665: 2LIG99_D54G (VHH)
VHH: QVQLQESGGGLVQAGGSLRLSCTASGTIFSINRMDWFRQAPGKQRELVALITSGGTPAYADSAKGRFTISRDNTKKTVSLQMNSLKPEDTAVYYCHVSSGVYNYWGQGTQVTVSS
notes: not shown: C-terminal His-tag
B2: 2LIG189 variant D33H (VHH, not shown: small tags and cut ends)
VHH: QVQLQESGGGLVQAGGSLRLSCAASGKIFSGNHMGWYRQAPGKQRELVGIITSGGITDYADAVKGRFTISRDNAKNMMYLQMNSLKPEDTAVYYCNMRDRTIWWGQGTQVTVSS
B3: 2LIG189 variant M97I (VHH, not shown: small tags and cut ends)
VHH: B2 VHH with H33D, M97I
notes: also called M971 (so in the source)
B4: 2LIG189 variant M97L (VHH, not shown: small tags and cut ends)
VHH: B2 VHH with H33D, M97L
B5: 2LIG189 variant M97V (VHH, not shown: small tags and cut ends)
VHH: B2 VHH with H33D, M97V
B6: 2LIG189 variant N32Q (VHH, not shown: small tags and cut ends)
VHH: B2 VHH with N32Q, H33D
B7: 2LIG189 variant N32R (VHH, not shown: small tags and cut ends)
VHH: B2 VHH with N32R, H33D
B8: SEQ ID NO: 72 (2LIG189 humanization variant with deamidation and oxidation risk sites removed) (VHH)
VHH: B2 VHH with Q1D, Q5V, A14P, A74S, M77T, M78V, K86R, M97V, Q109L
notes: also called 2LIG189 second wave variant

Assays:
[1] = biological target: T1, recombinant PD-L1 extracellular domain fused to the mouse IgG1 Fc domain (SinoBiologicals) (human; mouse, UniProt Q9NZQ7 19-238); test: BLI (Octet Red 96), PD-L1-mouse IgG1 Fc on AMQ biosensors, VHH dilution series; KD and kdis printed ND
T1 construct: extracellular domain; also called human PD-L1-mouse Fc; PD-L1-mouse Fc protein; not shown: mouse IgG1 Fc domain
T1 sequence (Q9NZQ7 19-238): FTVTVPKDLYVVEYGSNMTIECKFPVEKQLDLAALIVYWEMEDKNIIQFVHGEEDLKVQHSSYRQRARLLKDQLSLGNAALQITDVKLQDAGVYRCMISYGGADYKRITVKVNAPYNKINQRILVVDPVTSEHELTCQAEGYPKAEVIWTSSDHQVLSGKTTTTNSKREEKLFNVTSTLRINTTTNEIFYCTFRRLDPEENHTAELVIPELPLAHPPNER
Description: (§1) Affinities of resulting variants were measured using the bio-layer interferometry technology on an Octet Red 96 instrument (ForteBio). In brief, recombinant PD-L1 extracellular domain fused to the mouse IgG1 Fc domain (SinoBiologicals) was immobilized on anti-murine IgG quantitation (AMQ) biosensors (ForteBio). Loaded sensors were incubated with a serial dilution of PD-L1 VHH variant, association and dissociation monitored and kinetic parameters were calculated using the Octet Data Analysis software v10 (ForteBio).

[2] = biological target: T1, recombinant PD-L1 extracellular domain …; test: BLI (Octet Red 96); ratio of the printed KDs, variant over 2LIG189
Description: as §1
(§2) The aspartic acid at position 1 was included to avoid the risk of pyroglutamate formation. […] Resulting mutants were purified and affinities measured as described in Example 1.

[3] = biological target: T1, recombinant PD-L1 extracellular domain …; test: BLI as in Example 1; reference not named, taken as parental 2LIG189
Description: as §1, §2

[4] = biological target: T1, recombinant PD-L1 extracellular domain …; test: BLI (Octet Red 96), PD-L1-mouse IgG1 Fc on AMQ biosensors, VHH dilution series
Description: as §1, §2

[5] = biological target: T1, recombinant PD-L1 extracellular domain …; test: BLI (Octet), PD-L1-mouse Fc on the sensor, VHH dilution series, as described above
Description: as §1

[6] = biological target: T1, recombinant PD-L1 extracellular domain …; test: BLI as described above; reference not named

Binder	kon [1] [M⁻¹ s⁻¹]	Ratio KD [2]	fold increase in affinity [3] [fold]	Kd [4] [pM]	koff [4] [s⁻¹]	kon [4] [M⁻¹ s⁻¹]	Kd [5] [pM]	koff [5] [s⁻¹]	kon [5] [M⁻¹ s⁻¹]	fold increase in affinity [6] [fold]
B1	1.28e+06									
B2		0.47	≥ 2	372	0.000157	421000				
B3		0.01	≥ 2	7.41	3.45e-07	46500				
B4		0.01	≥ 2	11.5	4.88e-07	42500				
B5		0.01	≥ 2	5.99	3.81e-07	63700				
B6		0.16	≥ 2	125	8.84e-06	70500				
B7			≥ 2	< 1	< 1e-07	351000				
B8							144	7.71e-05	536000	40
